Legend:
[1] = molecular target: CD22 construct with smaller N-linked glycans (human) (UniProt P20273); assay: BLI
[2] = molecular target: T1, CD22 extracellular domain (CD22 ECD) produced in HEK293F cells (Homo sapiens, UniProt P20273); assay: BLI
[3] = molecular target: T1, CD22 extracellular domain (CD22 ECD) …; assay: ITC

T1 sequence (P20273 20-687): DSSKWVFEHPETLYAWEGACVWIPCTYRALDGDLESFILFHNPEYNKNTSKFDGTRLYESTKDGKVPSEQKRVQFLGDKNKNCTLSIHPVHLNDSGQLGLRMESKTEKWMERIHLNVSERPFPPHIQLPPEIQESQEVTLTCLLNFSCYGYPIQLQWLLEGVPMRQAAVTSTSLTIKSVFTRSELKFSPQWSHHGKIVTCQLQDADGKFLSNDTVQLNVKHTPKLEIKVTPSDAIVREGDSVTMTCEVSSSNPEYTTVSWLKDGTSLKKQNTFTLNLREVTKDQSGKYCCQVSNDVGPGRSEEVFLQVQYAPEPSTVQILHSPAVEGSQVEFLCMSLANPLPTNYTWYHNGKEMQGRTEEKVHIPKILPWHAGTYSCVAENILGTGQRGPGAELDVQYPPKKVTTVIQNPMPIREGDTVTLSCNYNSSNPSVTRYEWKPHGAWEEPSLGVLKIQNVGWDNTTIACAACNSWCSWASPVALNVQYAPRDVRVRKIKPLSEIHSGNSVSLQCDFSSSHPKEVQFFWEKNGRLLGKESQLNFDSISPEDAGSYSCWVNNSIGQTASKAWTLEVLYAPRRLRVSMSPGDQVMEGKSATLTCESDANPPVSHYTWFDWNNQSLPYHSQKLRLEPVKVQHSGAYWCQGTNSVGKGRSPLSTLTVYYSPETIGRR
CD22 construct with smaller N-linked glycans (human), sequence (P20273 20-687): as above

Kd [1]: 24 nM | Kd [2]: 327 nM | Kd [3]: 188 nM
B1: epratuzumab Fab (Fab, V domains shown)
VH: QVQLVQSGAEVKKPGSSVKVSCKASGYTFTSYWLHWVRQAPGQGLEWIGYINPRNDYTEYNQNFKDKATITADESTNTAYMELSSLRSEDTAFYFCARRDITTFYWGQGTTVTVSS
VL: DIQLTQSPSSLSASVGDRVTMSCKSSQSVLYSANHKNYLAWYQQKPGKAPKLLIYWASTRESGVPSRFSGSGSGTDFTLTISSLQPEDIATYYCHQYLSSWTFGGGTKLEIK

— paper PMC6124603 (Journal of Visualized Experiments : JoVE, 2018)
